Measurements taken from PMC6834639 (Nature Communications, 2019).
Like-named read-outs stand apart in the source and are kept apart here. Square brackets hold non-standard residues; d marks the D form. Ends that are not written are not given here.

Target: tetrameric transthyretin (TTR) (Homo sapiens, UniProt P02766)
Experiment: In-solution kinetics analysis of TTR-Aβ interactions via OpenSPR
Format: binding
Settings: for koff: dissociation rate constant
Experimental: One of the most common applications of SPR is the analysis and quantification of the interactions between proteins. SPR experiments were performed using a Nicoya Lifesciences OpenSPR system equipped with a COOH chip. Following the start-up procedure found in the OpenSPR™ manual, setup the OpenSPR™ instrument and load a COOH Sensor Chip. The COOH surface was activated following the instructions included in the Amine kit. The ligand was diluted to a concentration of 45 μg/mL into immobilization buffer (provided by Nicoya Lifesciences, pH 4.5) and 100 μL was injected at 20 μL/min for a 5-min interaction time. […] Immobilization was monitored via absorbance change in a standard solution of filtered buffer (PBS, pH 6.8, with 0.005% Tween 20) for 5 min at a flow rate of 50 μl/min. The surface was blocked with an injection of 100 μL of blocking buffer (provided by Nicoya Lifesciences, 1 M ethanolamine, pH 8.5). […] An association time of 150 s and a dislocation time of 400 s were used. The surface was regenerated with an injection of regeneration buffer (HCl 10 mM, pH 2.0) at a speed of 150 μL/min between each analyte injection. The chip was washed in 10 mM HCl (pH 2.0) to remove impurities. Data were collected at a rate of 5 Hz and was single referenced with blank injections. Data were fit to a 1:1 interaction model using the analysis software TraceDrawer.

[1] = OpenSPR, Replicate #1, read-out: ka
[2] = OpenSPR, Replicate #2, read-out: ka
[3] = OpenSPR, Replicate #3, read-out: ka
[4] = pH 6.8, OpenSPR, association rate constant, immobilized TTR, PBS pH 6.8, 0.005% Tween 20, 1:1 model, average of three ± SD, read-out: Ka (1/(M*s)) × 10^−2
[5] = OpenSPR, association rate constant, immobilized TTR, PBS pH 6.8, 0.005% Tween 20, 1:1 model, average of three ± SD
[6] = OpenSPR, immobilized TTR, PBS pH 6.8, 0.005% Tween 20, 1:1 model, average of three ± SD

Kd (OpenSPR, Replicate #1) | ka (OpenSPR, Replicate #1) | kd (OpenSPR, Replicate #1) | Kd (OpenSPR, Replicate #2) | ka (OpenSPR, Replicate #2) | kd (OpenSPR, Replicate #2) | Kd (OpenSPR, Replicate #3) | ka (OpenSPR, Replicate #3) | kd (OpenSPR, Replicate #3) | Ka (1/(M*s)) × 10^−2 [5] | koff [6] | Compound | kon [1] | kon [2] | kon [3] | kon [4] | binding dissociation rate constant higher than the WT Aβ (17–36) fragment (OpenSPR, tetrameric TTR, relative to WT Aβ (17–36))
– | – | – | – | – | – | – | – | – | – | – | CC[C@H](C)[C@H](NC(=O)[C@H](C)NC(=O)CNC(=O)[C@H](CCCCN)NC(=O)[C@H](CC(N)=O)NC(=O)[C@H](CO)NC(=O)CNC(=O)[C@@H](NC(=O)[C@H](CC(=O)O)NC(=O)[C@H](CCC(=O)O)NC(=O)[C@H](C)NC(=O)[C@H](Cc1ccccc1)NC(=O)[C@H](Cc1ccccc1)NC(=O)[C@@H](NC(=O)[C@@H](N)CC(C)C)C(C)C)C(C)C)C(=O)N[C@H](C(=O)NCC(=O)N[C@@H](CC(C)C)C(=O)N[C@@H](CCSC)C(=O)N[C@H](C(=O)O)C(C)C)[C@@H](C)CC [WT Aβ (17–36)] | 886 M⁻¹ s⁻¹ | 586 M⁻¹ s⁻¹ | 603 M⁻¹ s⁻¹ | 690 ± 80 M⁻¹ s⁻¹ | –
– | – | – | – | – | – | – | – | – | – | – | CC[C@H](C)[C@H](NC(=O)[C@H](C)NC(=O)CNC(=O)[C@H](CCCCN)NC(=O)[C@H](CC(N)=O)NC(=O)[C@@H](CO)NC(=O)CNC(=O)[C@@H](NC(=O)[C@@H](CC(=O)O)NC(=O)[C@H](CCC(=O)O)NC(=O)[C@H](C)NC(=O)[C@H](Cc1ccccc1)NC(=O)[C@H](Cc1ccccc1)NC(=O)[C@@H](NC(=O)[C@@H](N)CC(C)C)C(C)C)C(C)C)C(=O)N[C@H](C(=O)NCC(=O)N[C@@H](CC(C)C)C(=O)N[C@@H](CCSC)C(=O)N[C@H](C(=O)O)C(C)C)[C@@H](C)CC [dDdS Aβ (17–36)] | 3490 M⁻¹ s⁻¹ | 818 M⁻¹ s⁻¹ | 1470 M⁻¹ s⁻¹ | 1930 ± 700 M⁻¹ s⁻¹ | ~ 13 folds
116 µM | 1720 M⁻¹ s⁻¹ | 0.199 s⁻¹ | 199 µM | 489 M⁻¹ s⁻¹ | 0.0975 s⁻¹ | 133 µM | 753 M⁻¹ s⁻¹ | 0.1 s⁻¹ | 9.9 ± 3.2 1/(M*s) × 10^−2 | 13.2 ± 2.9 1/s × 10^2 | dD Aβ (17–36): Aβ (17–36) with D-isomerized Asp (LVFFAE[dD]VGSNKGAIIGLMV) | – | – | – | – | –
86.9 µM | 1660 M⁻¹ s⁻¹ | 0.144 s⁻¹ | 220 µM | 657 M⁻¹ s⁻¹ | 0.144 s⁻¹ | 47.3 µM | 1150 M⁻¹ s⁻¹ | 0.0546 s⁻¹ | 11.6 ± 2.5 1/(M*s) × 10^−2 | 11.4 ± 2.6 1/s × 10^2 | dS Aβ (17–36): Aβ (17–36) with D-isomerized Ser (LVFFAEDVG[dS]NKGAIIGLMV) | – | – | – | – | –
